From the RNAGym collection of RNA variant scans (doi:10.1101/gr.219683.116) come the findings set out here.

First the molecules themselves.
B1: mRNA-splicing (parent)
chain: AGUUGCUGCUGGGAGCUCCAGCACAGUGAAAUGGACAGAAGGGCAGAGCAA

This data set covers variants of B1. As to the kind of experiment: exon inclusion enrichment index; higher = more inclusion; WT1 exon 5 minigene, HEK293.
Turning to AGUUAUAUAUGGGAGCUCCAUAACAGUGAAAUGGACAGAAGGGCAGAGCAA [G5A C6U U7A G8U C9A G21U C22A], the “exon inclusion enrichment index” value was found to be 0.0356.

Consider AGUUAUAUAUGGGAGCUCCAUGACAGUGAAAUGGACAGAAGGGCAGAGCAA [G5A C6U U7A G8U C9A G21U C22G], for which the “exon inclusion enrichment index” value stood at 0.0561.

For the variant AGUUAUAUAUGGGAGCUCCAUUACAGUGAAAUGGACAGAAGGGCAGAGCAA [G5A C6U U7A G8U C9A G21U C22U], the “exon inclusion enrichment index” value came out at 0.00572.

As to AGUUAUAUAUGGGAGCUCCAGCACAGUGAAAUGGACAGAAGGACAGAGCAA [G5A C6U U7A G8U C9A G43A], the “exon inclusion enrichment index” value worked out at 0.454.

As for AGUUAUAUAUGGGAGCUCCAGCACAGUGAAAUGGACAGAAGGCCAGAGCAA [G5A C6U U7A G8U C9A G43C], the “exon inclusion enrichment index” value turned out to be 0.15.

AGUUAUAUAUGGGAGCUCCAGCACAGUGAAAUGGACAGAAGGUCAGAGCAA [G5A C6U U7A G8U C9A G43U]: the “exon inclusion enrichment index” value was 0.0904.

For the variant AGUUAUAUAUGGGAGCUCCAGCACAGUGAAAUUAACAGAAGGGCAGAGCAA [G5A C6U U7A G8U C9A G33U G34A], the “exon inclusion enrichment index” value was determined as 0.0131.

With AGUUAUAUAUGGGAGCUCCAGCACAGUGAAAUUCACAGAAGGGCAGAGCAA [G5A C6U U7A G8U C9A G33U G34C], the “exon inclusion enrichment index” value was determined as 0.00527.

With AGUUAUAUAUGGGAGCUCCAGCACAGUGAAAUUUACAGAAGGGCAGAGCAA [G5A C6U U7A G8U C9A G33U G34U], the “exon inclusion enrichment index” value was 0.0031.

As to AGUUAUAUAUGGGAGCUCCAGCACAGUGAAAUGGACAGAAAAGCAGAGCAA [G5A C6U U7A G8U C9A G41A G42A], the “exon inclusion enrichment index” value was found to be 0.0506.

AGUUAUAUAUGGGAGCUCCAGCACAGUGAAAUGGACAGAAACGCAGAGCAA [G5A C6U U7A G8U C9A G41A G42C]: the “exon inclusion enrichment index” value was determined as 0.172.

Consider AGUUAUAUAUGGGAGCUCCAGCACAGUGAAAUGGACAGAAAUGCAGAGCAA [G5A C6U U7A G8U C9A G41A G42U], for which the “exon inclusion enrichment index” value was 0.0659.

As to AGUUAUAUAUGGGAGCUCCAGCACACCGAAAUGGACAGAAGGGCAGAGCAA [G5A C6U U7A G8U C9A G26C U27C], the “exon inclusion enrichment index” value was 0.489.

As for AGUUAUAUAUGGGAGCUCCAGCACACGGAAAUGGACAGAAGGGCAGAGCAA [G5A C6U U7A G8U C9A G26C U27G], the “exon inclusion enrichment index” value turned out to be 0.442.

For the variant AGUUAUAUAUGGGAGCUCCAGCACACAGAAAUGGACAGAAGGGCAGAGCAA [G5A C6U U7A G8U C9A G26C U27A], the “exon inclusion enrichment index” value turned out to be 0.0751.

For the variant AGUUAUAUAUGGGAGCUCCAGCACAGUGAAAUGCGCAGAAGGGCAGAGCAA [G5A C6U U7A G8U C9A G34C A35G], the “exon inclusion enrichment index” value was determined as 0.0452.

As for AGUUAUAUAUGGGAGCUCCAGCACAGUGAAAUGCUCAGAAGGGCAGAGCAA [G5A C6U U7A G8U C9A G34C A35U], the “exon inclusion enrichment index” value was determined as 0.0109.

For AGUUAUAUAUGGGAGCUCCAGCACAGUGAAAUGCCCAGAAGGGCAGAGCAA [G5A C6U U7A G8U C9A G34C A35C], the “exon inclusion enrichment index” value stood at 0.00243.

As to AGUUAUAUAUGGGAGCUCCAGCACAGUGAAAUGGACAUCAGGGCAGAGCAA [G5A C6U U7A G8U C9A G38U A39C], the “exon inclusion enrichment index” value worked out at 0.045.

Turning to AGUUAUAUAUGGGAGCUCCAGCACAGUGAAAUGGACAUGAGGGCAGAGCAA [G5A C6U U7A G8U C9A G38U A39G], the “exon inclusion enrichment index” value came to 0.03.

As to AGUUAUAUAUGGGAGCUCCAGCACAGUGAAAUGGACAUUAGGGCAGAGCAA [G5A C6U U7A G8U C9A G38U A39U], the “exon inclusion enrichment index” value was 0.00248.

With AGUUAUAUAUGGGAGCUCCAGCACAGUAUAAUGGACAGAAGGGCAGAGCAA [G5A C6U U7A G8U C9A G28A A29U], the “exon inclusion enrichment index” value is 0.00845.

For the variant AGUUAUAUAUGGGAGCUCCAGCACAGUAGAAUGGACAGAAGGGCAGAGCAA [G5A C6U U7A G8U C9A G28A A29G], the “exon inclusion enrichment index” value stood at 0.00353.

Regarding AGUUAUAUAUGGGAGCUCCAGCACAGUACAAUGGACAGAAGGGCAGAGCAA [G5A C6U U7A G8U C9A G28A A29C], the “exon inclusion enrichment index” value was determined as 0.0311.

AGUUAUAUAUGGGAGCUCCAGCACAGUCUAAUGGACAGAAGGGCAGAGCAA [G5A C6U U7A G8U C9A G28C A29U]: the “exon inclusion enrichment index” value came to 0.0282.

As to AGUUAUAUAUGGGAGCUCCAGCACAGUCGAAUGGACAGAAGGGCAGAGCAA [G5A C6U U7A G8U C9A G28C A29G], the “exon inclusion enrichment index” value came out at 0.178.

For the variant AGUUAUAUAUGGGAGCUCCAGCACAGUCCAAUGGACAGAAGGGCAGAGCAA [G5A C6U U7A G8U C9A G28C A29C], the “exon inclusion enrichment index” value came to 0.0748.

Take AGUUAUAUAUGGGAGCUCCAGCACAGUGAAAUGAGCAGAAGGGCAGAGCAA [G5A C6U U7A G8U C9A G34A A35G]: the “exon inclusion enrichment index” value is 0.00212.

For AGUUAUAUAUGGGAGCUCCAGCACAGUGAAAUGAUCAGAAGGGCAGAGCAA [G5A C6U U7A G8U C9A G34A A35U], the “exon inclusion enrichment index” value stood at 0.00832.

In the case of AGUUAUAUAUGGGAGCUCCAGCACAGUGAAAUGACCAGAAGGGCAGAGCAA [G5A C6U U7A G8U C9A G34A A35C], the “exon inclusion enrichment index” value worked out at 0.0538.

With AGUUAUAUAUGGGAGCUCCAGCACAGUGAAAUGGACAGAAGCACAGAGCAA [G5A C6U U7A G8U C9A G42C G43A], the “exon inclusion enrichment index” value was determined as 0.295.

With AGUUAUAUAUGGGAGCUCCAGCACAGUGAAAUGGACAGAAGCCCAGAGCAA [G5A C6U U7A G8U C9A G42C G43C], the “exon inclusion enrichment index” value was 0.451.

With AGUUAUAUAUGGGAGCUCCAGCACAGUGAAAUGGACAGAAGCUCAGAGCAA [G5A C6U U7A G8U C9A G42C G43U], the “exon inclusion enrichment index” value stood at 0.352.

With AGUUAUAUAUGGGAGCUCCAGCACAGUGAAAUGGACAGAAGUUCAGAGCAA [G5A C6U U7A G8U C9A G42U G43U], the “exon inclusion enrichment index” value is 0.23.

With AGUUAUAUAUGGGAGCUCCAGCACAGUGAAAUGGACAGAAGUACAGAGCAA [G5A C6U U7A G8U C9A G42U G43A], the “exon inclusion enrichment index” value came out at 0.282.

Take AGUUAUAUAUGGGAGCUCCAGCACAGUGAAAUGGACAGAAGUCCAGAGCAA [G5A C6U U7A G8U C9A G42U G43C]: the “exon inclusion enrichment index” value was 0.0628.

In the case of AGUUAUAUAUGGGAGCUCCAGCACAUAGAAAUGGACAGAAGGGCAGAGCAA [G5A C6U U7A G8U C9A G26U U27A], the “exon inclusion enrichment index” value was determined as 0.0488.

Consider AGUUAUAUAUGGGAGCUCCAGCACAUGGAAAUGGACAGAAGGGCAGAGCAA [G5A C6U U7A G8U C9A G26U U27G], for which the “exon inclusion enrichment index” value amounted to 0.261.

For the variant AGUUAUAUAUGGGAGCUCCAGCACAUCGAAAUGGACAGAAGGGCAGAGCAA [G5A C6U U7A G8U C9A G26U U27C], the “exon inclusion enrichment index” value was 0.536.

For AGUUAUAUAUGGGAGCUCCAGCACAGUGAAAUGGACAAAAGGGCAGAGCAA [G5A C6U U7A G8U C9A G38A], the “exon inclusion enrichment index” value was found to be 0.0251.

AGUUAUAUAUGGGAGCUCCAGCACAGUGAAAUGGACACAAGGGCAGAGCAA [G5A C6U U7A G8U C9A G38C]: the “exon inclusion enrichment index” value came to 0.0329.

Take AGUUAUAUAUGGGAGCUCCAGCACAGUGAAAUGGACAUAAGGGCAGAGCAA [G5A C6U U7A G8U C9A G38U]: the “exon inclusion enrichment index” value was determined as 0.0207.

For the variant AGUUAUAUAUGGGAGCUCCAGCACAGUGAAAUGGACACGAGGGCAGAGCAA [G5A C6U U7A G8U C9A G38C A39G], the “exon inclusion enrichment index” value was 0.115.

In the case of AGUUAUAUAUGGGAGCUCCAGCACAGUGAAAUGGACACUAGGGCAGAGCAA [G5A C6U U7A G8U C9A G38C A39U], the “exon inclusion enrichment index” value came to 0.0021.

On to AGUUAUAUAUGGGAGCUCCAGCACAGUGAAAUGGACACCAGGGCAGAGCAA [G5A C6U U7A G8U C9A G38C A39C], for which the “exon inclusion enrichment index” value was 0.105.

For AGUUAUAUAUGGGAGCUCCAUCACAGUGAAAUGGACAGAAGGGCAGAGCAA [G5A C6U U7A G8U C9A G21U], the “exon inclusion enrichment index” value was 0.0639.

As to AGUUAUAUAUGGGAGCUCCAGCACAGUGAAAUCUACAGAAGGGCAGAGCAA [G5A C6U U7A G8U C9A G33C G34U], the “exon inclusion enrichment index” value came to 0.0325.

In the case of AGUUAUAUAUGGGAGCUCCAGCACAGUGAAAUCCACAGAAGGGCAGAGCAA [G5A C6U U7A G8U C9A G33C G34C], the “exon inclusion enrichment index” value worked out at 0.043.

In the case of AGUUAUAUAUGGGAGCUCCAGCACAGUGAAAUCAACAGAAGGGCAGAGCAA [G5A C6U U7A G8U C9A G33C G34A], the “exon inclusion enrichment index” value is 0.0386.

For the variant AGUUAUAUAUGGGAGCUCCAGCACAGUAAAAUGGACAGAAGGGCAGAGCAA [G5A C6U U7A G8U C9A G28A], the “exon inclusion enrichment index” value turned out to be 0.0134.

As to AGUUAUAUAUGGGAGCUCCAGCACAGUCAAAUGGACAGAAGGGCAGAGCAA [G5A C6U U7A G8U C9A G28C], the “exon inclusion enrichment index” value turned out to be 0.0466.
